The results in this text go back to PMC5463365, “Assembly and use of high-density recombinant peptide chips for large-scale ligand screening is a practical alternative to synthetic peptide libraries” (BMC Genomics, 2017).

Experiment [1] concerns the target T1, Streptavidin on Streptavidin-coated biosensors (UniProt P22629 25-183).
T1 construct: Streptavidin coated on disposable biosensors; also called Streptavidin biosensors; source: bought: Streptavidin-coated biosensors for ForteBio's BLItz system
In words: BLI; BLItz system; Streptavidin-coated biosensors exposed to chemically synthesized 5'FAM peptides for 2 min in ES2 buffer; only a single analyte concentration tested. The note with it: both partners purified.

The target in experiment [2] is T2, Recombinant Streptavidin, unconjugated (UniProt P22629 25-183).
T2 construct: Streptavidin, commercial recombinant protein; Used in the fluorescence polarisation assays; source: bought: recombinant, unconjugated format (Thermo Fisher Scientific, BioRad or Perkin Elmer, 'respectively')
T2 sequence (P22629 25-183): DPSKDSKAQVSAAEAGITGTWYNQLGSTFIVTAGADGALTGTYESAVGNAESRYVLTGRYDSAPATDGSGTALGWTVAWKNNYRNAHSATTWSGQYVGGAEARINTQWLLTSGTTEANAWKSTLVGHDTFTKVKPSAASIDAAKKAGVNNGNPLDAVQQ
Kind of experiment: fluorescence polarisation; 20 nM 5'FAM-labeled peptide with rising concentrations of Streptavidin/StrepTactin, triplicates; ES2 buffer (100 mM potassium phosphate pH 7.4, 100 μg/ml bovine γ globulin, 0.02% NaN3); at least 2 h at RT or o/n at 4 °C. The note with it: both partners purified. (In general: Fluorescence polarisation rises when a labelled molecule tumbles more slowly, as on binding a larger partner.)

Where no end group is shown, it is not given here.

T1 sequence (P22629 25-183): as above

One may read the Kd as the equilibrium constant for the complex coming apart. With {FAM}-WSHPQFEK (Strep-tag II; source: synthetic peptide) [5'FAM-labeled Strep-tag II peptide], the results for the Kd in experiment [1] and in experiment [2] were 25.4 µM and 13.3 µM, respectively.

B1: 5'FAM-labeled Strep-tag I peptide (peptide)
peptide: {FAM}-AWRHPQFGG
notes: Strep-tag I; source: synthetic peptide (GenScript Inc.)
In the case of B1, the Kd in experiment [2] came to 2.75 µM.
In experiment [1], {FAM}-VSHPQAPF (B5; source: synthetic peptide) [5'FAM-labeled B5 peptide] showed a Kd of 79.5 µM.
